Here are results for 1 molecule from PMC6685660.

Assay in all cases: EMSA
In one data set the target is T1, AaTGA6;AaNPR1 (Artemisia annua;Artemisia annua, UniProt A0A481P8G0;A0A481P8F5 1-436;1-569, |).
T1 sequence 1: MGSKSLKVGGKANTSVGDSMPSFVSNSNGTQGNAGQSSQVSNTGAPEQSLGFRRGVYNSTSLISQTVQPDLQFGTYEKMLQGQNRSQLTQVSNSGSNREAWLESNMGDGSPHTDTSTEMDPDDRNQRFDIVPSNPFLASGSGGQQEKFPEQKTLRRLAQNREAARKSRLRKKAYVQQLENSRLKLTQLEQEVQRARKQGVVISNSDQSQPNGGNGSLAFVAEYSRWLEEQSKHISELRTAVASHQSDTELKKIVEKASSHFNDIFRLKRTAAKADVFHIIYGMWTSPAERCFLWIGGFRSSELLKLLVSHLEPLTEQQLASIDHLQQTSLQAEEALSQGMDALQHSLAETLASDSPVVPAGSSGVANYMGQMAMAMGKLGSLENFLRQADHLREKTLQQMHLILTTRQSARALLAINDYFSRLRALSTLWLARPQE
T1 sequence 2: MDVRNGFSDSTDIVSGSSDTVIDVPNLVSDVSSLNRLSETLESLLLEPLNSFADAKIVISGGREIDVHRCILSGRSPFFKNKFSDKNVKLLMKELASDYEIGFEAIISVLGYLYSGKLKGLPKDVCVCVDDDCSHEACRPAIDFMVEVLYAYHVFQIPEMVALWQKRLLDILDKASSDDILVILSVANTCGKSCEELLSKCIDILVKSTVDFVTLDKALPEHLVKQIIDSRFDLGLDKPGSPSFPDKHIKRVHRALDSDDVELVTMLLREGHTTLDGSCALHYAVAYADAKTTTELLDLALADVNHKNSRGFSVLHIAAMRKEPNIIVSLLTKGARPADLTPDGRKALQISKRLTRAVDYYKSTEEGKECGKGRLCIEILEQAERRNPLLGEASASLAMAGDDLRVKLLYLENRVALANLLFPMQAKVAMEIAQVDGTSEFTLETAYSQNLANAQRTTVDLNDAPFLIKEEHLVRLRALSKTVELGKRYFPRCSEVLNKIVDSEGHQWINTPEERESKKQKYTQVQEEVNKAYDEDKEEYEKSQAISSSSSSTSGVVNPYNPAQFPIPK

A further data set deals with T2, AaNPR1 (Artemisia annua, UniProt A0A481P8F5 1-569).
T2 sequence: T1 sequence 2

The next data set has as its target T3, AaTGA6 (Artemisia annua, UniProt A0A481P8G0 1-436).
T3 sequence: T1 sequence 1

B1: AaERF1 promoter TGACG box probe (40 bp) (dsDNA)
DNA 1: AATGATGCGTCAAGCCATGACGTCACCCCTAATCCTAAAT
DNA 2: ATTTAGGATTAGGGGTGACGTCATGGCTTGACGCATCATT
Regarding B1, the binding result is “binds” in the data set with AaTGA6;AaNPR1, “no binding” in the data set with AaNPR1 and “binds” with AaTGA6.
